Biological target: T1, Human CD40 ligand (BioLegend) (human, UniProt P29965 113-261, limits assumed)
T1 construct: Coated on the ELISA plate at 2 ug/ml; also called CD154; gp39
T1 sequence (looked up): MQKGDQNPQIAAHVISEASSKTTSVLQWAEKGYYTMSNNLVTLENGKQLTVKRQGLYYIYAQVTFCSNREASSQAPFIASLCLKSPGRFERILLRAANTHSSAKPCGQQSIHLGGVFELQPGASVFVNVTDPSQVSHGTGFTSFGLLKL
Assay: ELISA on plate-immobilized human CD40 ligand (2 ug/ml coat); serial dilutions of HEK293 transfection supernatant; detection with HRP goat anti-human IgG Fc; x axis is fold dilution, no concentration given

B1: [hCD40 EC]-(g4s)4-[SSShinge-P238S Fc] (wild-type CD40-Fc) (Fc fusion)
chain: EPPTACREKQYLINSQCCSLCQPGQKLVSDCTEFTETECLPCGESEFLDTWNRETHCHQHKYCDPNLGLRVQQKGTSETDTICTCEEGWHCTSEACESCVLHRSCSPGFGVKQIATGVSDTICEPCPVGFFSNVSSAFEKCHPWTSCETKDLVVQQAGTNKTDVVCGPDLSGGGGSGGGGSGGGGSGGGGSTGLEPKSSDKTHTSPPSPAPELLGGSSVFLFPPKPKDTLMISRTPEVTCVVVDVSHEDPEVKFNWYVDGVEVHNAKTKPREEQYNSTYRVVSVLTVLHQDWLNGKEYKCKVSNKALPASIEKTISKAKGQPREPQVYTLPPSRDELTKNQVSLTCLVKGFYPSDIAVEWESNGQPENNYKTTPPVLDSDGSFFLYSKLTVDKSRWQQGNVFSCSVMHEALHNHYTQKSLSLSPGK
notes: Tested as HEK293 transfection supernatant; also called CD40WT-Fc
  binding result: binds

B2: hVK3LP-[hCD40EC E64Y-K81T-P85Y]-(g4s)4-[SSShinge-P238S Fc]-NGS-[PON1 Q192K] (Fc fusion)
chain: EPPTACREKQYLINSQCCSLCQPGQKLVSDCTEFTETECLPCGYSEFLDTWNRETHCHQHTYCDYNLGLRVQQKGTSETDTICTCEEGWHCTSEACESCVLHRSCSPGFGVKQIATGVSDTICEPCPVGFFSNVSSAFEKCHPWTSCETKDLVVQQAGTNKTDVVCGPDLSGGGGSGGGGSGGGGSGGGGSTGLEPKSSDKTHTSPPSPAPELLGGSSVFLFPPKPKDTLMISRTPEVTCVVVDVSHEDPEVKFNWYVDGVEVHNAKTKPREEQYNSTYRVVSVLTVLHQDWLNGKEYKCKVSNKALPASIEKTISKAKGQPREPQVYTLPPSRDELTKNQVSLTCLVKGFYPSDIAVEWESNGQPENNYKTTPPVLDSDGSFFLYSKLTVDKSRWQQGNVFSCSVMHEALHNHYTQKSLSLSPGKVDGASSPVNVSSPSVQDILFRNHQSSYQTRLNALREVQPVELPNCNLVKGIETGSEDLEILPNGLAFISSGLKYPGIKSFNPNSPGKILLMDLNEEDPTVLELGITGSKFDVSSFNPHGISTFTDEDNAMYLLVVNHPDAKSTVELFKFQEEEKSLLHLKTIRHKLLPNLNDIVAVGPEHFYGTNDHYFLDPYLKSWEMYLGLAWSYVVYYSPSEVRVVAEGFDFANGINISPDGKYVYIAELLAHKIHVYEKHANWTLTPLKSLDFNTLVDNISVDPETGDLWVGCHPNGMKIFFYDSENPPASEVLRIQNILTEEPKVTQVYAENGTVLQGSTVASVYKGKLLIGTVFHKALYCEL
notes: Tested as unpurified HEK293 transfection supernatant; also called CD40TM-Fc-P1-K; CD40-Fc-PON1 fusion protein
  binding result: binds
